T1: FcγRIIa R (human, UniProt P12318 34-217)
T1 construct: extracellular domain; also called FcgRIIa R type; 2aR
T1 sequence (looked up): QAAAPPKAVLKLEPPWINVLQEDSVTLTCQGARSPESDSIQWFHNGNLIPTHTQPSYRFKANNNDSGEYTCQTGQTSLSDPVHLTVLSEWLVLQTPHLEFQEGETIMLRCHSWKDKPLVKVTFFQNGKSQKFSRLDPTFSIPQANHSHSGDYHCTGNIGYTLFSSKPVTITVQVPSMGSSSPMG


The binders below were run against T1, FcγRIIa R (assay: SPR (Biacore), captured antibody, FcγR as analyte; relative binding activity).
Experimental: Analysis of interaction between objective antibody and the FcγR was carried out using Biacore T100 (GE Healthcare). HBS-EP+ (GE Healthcare) was used as the running buffer, and the measurement temperature was set to 25° C. Chips produced by immobilizing the antigen peptide by the amine coupling method to a Series S Sencor Chip CM5 (GE Healthcare), or alternatively, chips produced by allowing preliminarily biotinylated antigen peptides to interact with and immobilize onto a Series S Sensor Chip SA (certified) (GE Healthcare) were used. Antibodies of interest were captured onto an antigen peptide-immobilized chip, and allowed to interact to each FcγR diluted with running buffer. To regenerate and repeatedly use the chip, the antibodies captured on the chip were washed off by reacting 10 mM glycine-HCl, pH 1.5.

Row | Binder | Ho/Con_2aR
1 | GpH7-B3 variant K334_13S/GpL16-k0 (antibody, human IgG1, kappa, also called Ho Ab K334_13S) heavy: not shown light: DIVMTQSPLSLPVTPGEPASISCQASESLVHSNRNTYLHWYLQKPGQSPQLLIYKVSNRFSGVPDRFSGSGSGTDFTLKISRVEAEDVGVYYCSQNTHVPPTFGQGTKVEIERTVAAPSVFIFPPSDEQLKSGTASVVCLLNNFYPREAKVQWKVDNALQSGNSQESVTEQDSKDSTYSLSSTLTLSKADYEKHKVYACEVTHQGLSSPVTKSFNRGEC | 106 % (GpH7-B3/GpL16-k0 = 100)
2 | GpH7-B3 variant K334_10E/GpL16-k0 (antibody, human IgG1, kappa, also called Ho Ab K334_10E) heavy: not shown light: DIVMTQSPLSLPVTPGEPASISCQASESLVHSNRNTYLHWYLQKPGQSPQLLIYKVSNRFSGVPDRFSGSGSGTDFTLKISRVEAEDVGVYYCSQNTHVPPTFGQGTKVEIERTVAAPSVFIFPPSDEQLKSGTASVVCLLNNFYPREAKVQWKVDNALQSGNSQESVTEQDSKDSTYSLSSTLTLSKADYEKHKVYACEVTHQGLSSPVTKSFNRGEC | 106 % (GpH7-B3/GpL16-k0 = 100)
3 | GpH7-B3 variant L235_09D/GpL16-k0 (antibody, human IgG1, kappa, also called Ho Ab L235_09D) heavy: not shown light: DIVMTQSPLSLPVTPGEPASISCQASESLVHSNRNTYLHWYLQKPGQSPQLLIYKVSNRFSGVPDRFSGSGSGTDFTLKISRVEAEDVGVYYCSQNTHVPPTFGQGTKVEIERTVAAPSVFIFPPSDEQLKSGTASVVCLLNNFYPREAKVQWKVDNALQSGNSQESVTEQDSKDSTYSLSSTLTLSKADYEKHKVYACEVTHQGLSSPVTKSFNRGEC | 73 % (GpH7-B3/GpL16-k0 = 100)
4 | GpH7-B3 variant L235_04F/GpL16-k0 (antibody, human IgG1, kappa, also called Ho Ab L235_04F) heavy: not shown light: DIVMTQSPLSLPVTPGEPASISCQASESLVHSNRNTYLHWYLQKPGQSPQLLIYKVSNRFSGVPDRFSGSGSGTDFTLKISRVEAEDVGVYYCSQNTHVPPTFGQGTKVEIERTVAAPSVFIFPPSDEQLKSGTASVVCLLNNFYPREAKVQWKVDNALQSGNSQESVTEQDSKDSTYSLSSTLTLSKADYEKHKVYACEVTHQGLSSPVTKSFNRGEC | 98.9 % (GpH7-B3/GpL16-k0 = 100)

Now from value to binder:

Row | Ho/Con_2aR | Binder
5 | 134 % (GpH7-B3/GpL16-k0 = 100) | GpH7-B3 variant K326_15Y/GpL16-k0 (antibody, human IgG1, kappa, also called Ho Ab K326_15Y) heavy: not shown light: DIVMTQSPLSLPVTPGEPASISCQASESLVHSNRNTYLHWYLQKPGQSPQLLIYKVSNRFSGVPDRFSGSGSGTDFTLKISRVEAEDVGVYYCSQNTHVPPTFGQGTKVEIERTVAAPSVFIFPPSDEQLKSGTASVVCLLNNFYPREAKVQWKVDNALQSGNSQESVTEQDSKDSTYSLSSTLTLSKADYEKHKVYACEVTHQGLSSPVTKSFNRGEC
6 | 108 % (GpH7-B3/GpL16-k0 = 100) | GpH7-B3 variant K334_19Q/GpL16-k0 (antibody, human IgG1, kappa, also called Ho Ab K334_19Q) heavy: not shown light: DIVMTQSPLSLPVTPGEPASISCQASESLVHSNRNTYLHWYLQKPGQSPQLLIYKVSNRFSGVPDRFSGSGSGTDFTLKISRVEAEDVGVYYCSQNTHVPPTFGQGTKVEIERTVAAPSVFIFPPSDEQLKSGTASVVCLLNNFYPREAKVQWKVDNALQSGNSQESVTEQDSKDSTYSLSSTLTLSKADYEKHKVYACEVTHQGLSSPVTKSFNRGEC
7 | 105 % (GpH7-B3/GpL16-k0 = 100) | GpH7-B3 variant K334_08L/GpL16-k0 (antibody, human IgG1, kappa, also called Ho Ab K334_08L) heavy: not shown light: DIVMTQSPLSLPVTPGEPASISCQASESLVHSNRNTYLHWYLQKPGQSPQLLIYKVSNRFSGVPDRFSGSGSGTDFTLKISRVEAEDVGVYYCSQNTHVPPTFGQGTKVEIERTVAAPSVFIFPPSDEQLKSGTASVVCLLNNFYPREAKVQWKVDNALQSGNSQESVTEQDSKDSTYSLSSTLTLSKADYEKHKVYACEVTHQGLSSPVTKSFNRGEC
8 | 102 % (GpH7-B3/GpL16-k0 = 100) | GpH7-B3 variant K334_05P/GpL16-k0 (antibody, human IgG1, kappa, also called Ho Ab K334_05P) heavy: not shown light: DIVMTQSPLSLPVTPGEPASISCQASESLVHSNRNTYLHWYLQKPGQSPQLLIYKVSNRFSGVPDRFSGSGSGTDFTLKISRVEAEDVGVYYCSQNTHVPPTFGQGTKVEIERTVAAPSVFIFPPSDEQLKSGTASVVCLLNNFYPREAKVQWKVDNALQSGNSQESVTEQDSKDSTYSLSSTLTLSKADYEKHKVYACEVTHQGLSSPVTKSFNRGEC
9 | 110 % (GpH7-B3/GpL16-k0 = 100) | GpH7-B3 variant K334_04F/GpL16-k0 (antibody, human IgG1, kappa, also called Ho Ab K334_04F) heavy: not shown light: DIVMTQSPLSLPVTPGEPASISCQASESLVHSNRNTYLHWYLQKPGQSPQLLIYKVSNRFSGVPDRFSGSGSGTDFTLKISRVEAEDVGVYYCSQNTHVPPTFGQGTKVEIERTVAAPSVFIFPPSDEQLKSGTASVVCLLNNFYPREAKVQWKVDNALQSGNSQESVTEQDSKDSTYSLSSTLTLSKADYEKHKVYACEVTHQGLSSPVTKSFNRGEC
10 | 114 % (GpH7-B3/GpL16-k0 = 100) | GpH7-B3 variant L235_20W/GpL16-k0 (antibody, human IgG1, kappa, also called Ho Ab L235_20W) heavy: not shown light: DIVMTQSPLSLPVTPGEPASISCQASESLVHSNRNTYLHWYLQKPGQSPQLLIYKVSNRFSGVPDRFSGSGSGTDFTLKISRVEAEDVGVYYCSQNTHVPPTFGQGTKVEIERTVAAPSVFIFPPSDEQLKSGTASVVCLLNNFYPREAKVQWKVDNALQSGNSQESVTEQDSKDSTYSLSSTLTLSKADYEKHKVYACEVTHQGLSSPVTKSFNRGEC
